Experimental data from patent publication US20250171562A1 (ALK ABELL, published 2025).

B1: CIgG4F2A1(G4S)3 (Fc fusion)
chain 1: GPPCPPCPAPEFLGGPSVFLFPPKPKDTLMISRTPEVTCVVVDVSQEDPEVQFNWYVDGVEVHNAKTKPREEQFNSTYRVVSVLTVLHQDWLNGKEYKCKVSNKGLPSSIEKTISKAKGQPREPQVYTLPPCQEEMTKNQVSLWCLVKGFYPSDIAVEWESNGQPENNYKTTPPVLDSDGSFFLYSRLTVDKSRWQEGNVFSCSVMHEALHNHYTQKSLSLSLGKGGGGSGGGGSGGGGSDVQLQESGGGLVQAGGSLKLSCAASGGSLSRYDMGWFRQAPGKEREFVARISWSGDTKYYADAVEGRFAISRDNAQNTVYLQMNSLKPEDTAVYYCAVALYGNRGYYDVNTYSYWGQGTRVTVS
chain 2: GPPCPPCPAPEFLGGPSVFLFPPKPKDTLMISRTPEVTCVVVDVSQEDPEVQFNWYVDGVEVHNAKTKPREEQFNSTYRVVSVLTVLHQDWLNGKEYKCKVSNKGLPSSIEKTISKAKGQPREPQVCTLPPSQEEMTKNQVSLSCAVKGFYPSDIAVEWESNGQPENNYKTTPPVLDSDGSFFLVSRLTVDKSRWQEGNVFSCSVMHEALHNHYTQKSLSLSLGKGGGGSGGGGSGGGGSEVQLLESGGGLVQPGGSLRLSCAASGFTFGNYDMAWVRQAPGKRPEWVSSIDTGGDITHYADSVKGRFTISRDNAKNTLYLQMNSLRPEDTAVYWCATDEEYALGPNEFDYYGQGTLVTVSS
B2: CIgG4F3A1(G4S)3 (Fc fusion)
chain 1: GPPCPPCPAPEFLGGPSVFLFPPKPKDTLMISRTPEVTCVVVDVSQEDPEVQFNWYVDGVEVHNAKTKPREEQFNSTYRVVSVLTVLHQDWLNGKEYKCKVSNKGLPSSIEKTISKAKGQPREPQVYTLPPCQEEMTKNQVSLWCLVKGFYPSDIAVEWESNGQPENNYKTTPPVLDSDGSFFLYSRLTVDKSRWQEGNVFSCSVMHEALHNHYTQKSLSLSLGKGGGGSGGGGSGGGGSDVQLQESGGGLVQAGGSLKLSCAASRGSLSRWDVAWFRQAPGKERSFVTRISWSGTTSYYADAVKGRFAISRDNAKNTVYLQMNSLKPEDTAVYYCAVALYGNRGYYDVNAHSYWGQGTQVTVS
chain 2: GPPCPPCPAPEFLGGPSVFLFPPKPKDTLMISRTPEVTCVVVDVSQEDPEVQFNWYVDGVEVHNAKTKPREEQFNSTYRVVSVLTVLHQDWLNGKEYKCKVSNKGLPSSIEKTISKAKGQPREPQVCTLPPSQEEMTKNQVSLSCAVKGFYPSDIAVEWESNGQPENNYKTTPPVLDSDGSFFLVSRLTVDKSRWQEGNVFSCSVMHEALHNHYTQKSLSLSLGKGGGGSGGGGSGGGGSEVQLLESGGGLVQPGGSLRLSCAASGFTFGNYDMAWVRQAPGKRPEWVSSIDTGGDITHYADSVKGRFTISRDNAKNTLYLQMNSLRPEDTAVYWCATDEEYALGPNEFDYYGQGTLVTVSS
B3: CIgG4F3A1(G4S)1 (Fc fusion)
chain 1: GPPCPPCPAPEFLGGPSVFLFPPKPKDTLMISRTPEVTCVVVDVSQEDPEVQFNWYVDGVEVHNAKTKPREEQFNSTYRVVSVLTVLHQDWLNGKEYKCKVSNKGLPSSIEKTISKAKGQPREPQVYTLPPCQEEMTKNQVSLWCLVKGFYPSDIAVEWESNGQPENNYKTTPPVLDSDGSFFLYSRLTVDKSRWQEGNVFSCSVMHEALHNHYTQKSLSLSLGKGGGGSDVQLQESGGGLVQAGGSLKLSCAASRGSLSRWDVAWFRQAPGKERSFVTRISWSGTTSYYADAVKGRFAISRDNAKNTVYLQMNSLKPEDTAVYYCAVALYGNRGYYDVNAHSYWGQGTQVTVS
chain 2: GPPCPPCPAPEFLGGPSVFLFPPKPKDTLMISRTPEVTCVVVDVSQEDPEVQFNWYVDGVEVHNAKTKPREEQFNSTYRVVSVLTVLHQDWLNGKEYKCKVSNKGLPSSIEKTISKAKGQPREPQVCTLPPSQEEMTKNQVSLSCAVKGFYPSDIAVEWESNGQPENNYKTTPPVLDSDGSFFLVSRLTVDKSRWQEGNVFSCSVMHEALHNHYTQKSLSLSLGKGGGGSEVQLLESGGGLVQPGGSLRLSCAASGFTFGNYDMAWVRQAPGKRPEWVSSIDTGGDITHYADSVKGRFTISRDNAKNTLYLQMNSLRPEDTAVYWCATDEEYALGPNEFDYYGQGTLVTVSS
B4: NIgG4F4A1(RS) (Fc fusion)
chain 1: DVQLQESGGGLVQAGGSLRLSCAVSGLSFSSMGWFRQPPGKEREFVAAISLYSGSTYYADSVKGRFTISSDNAKSTVYLQMNSLKPEDAAVYFCAADRQRTWSTFYASRQATYNYWGQGTQVTVTSRSGPPCPPCPAPEFLGGPSVFLFPPKPKDTLMISRTPEVTCVVVDVSQEDPEVQFNWYVDGVEVHNAKTKPREEQFNSTYRVVSVLTVLHQDWLNGKEYKCKVSNKGLPSSIEKTISKAKGQPREPQVYTLPPCQEEMTKNQVSLWCLVKGFYPSDIAVEWESNGQPENNYKTTPPVLDSDGSFFLYSRLTVDKSRWQEGNVFSCSVMHEALHNHYTQKSLSLSLGK
chain 2: EVQLLESGGGLVQPGGSLRLSCAASGFTFGNYDMAWVRQAPGKRPEWVSSIDTGGDITHYADSVKGRFTISRDNAKNTLYLQMNSLRPEDTAVYWCATDEEYALGPNEFDYYGQGTLVTVSSRSGPPCPPCPAPEFLGGPSVFLFPPKPKDTLMISRTPEVTCVVVDVSQEDPEVQFNWYVDGVEVHNAKTKPREEQFNSTYRVVSVLTVLHQDWLNGKEYKCKVSNKGLPSSIEKTISKAKGQPREPQVCTLPPSQEEMTKNQVSLSCAVKGFYPSDIAVEWESNGQPENNYKTTPPVLDSDGSFFLVSRLTVDKSRWQEGNVFSCSVMHEALHNHYTQKSLSLSLGK
B5: CIgG4F3A1(RS) (Fc fusion)
chain 1: GPPCPPCPAPEFLGGPSVFLFPPKPKDTLMISRTPEVTCVVVDVSQEDPEVQFNWYVDGVEVHNAKTKPREEQFNSTYRVVSVLTVLHQDWLNGKEYKCKVSNKGLPSSIEKTISKAKGQPREPQVYTLPPCQEEMTKNQVSLWCLVKGFYPSDIAVEWESNGQPENNYKTTPPVLDSDGSFFLYSRLTVDKSRWQEGNVFSCSVMHEALHNHYTQKSLSLSLGKRSDVQLQESGGGLVQAGGSLKLSCAASRGSLSRWDVAWFRQAPGKERSFVTRISWSGTTSYYADAVKGRFAISRDNAKNTVYLQMNSLKPEDTAVYYCAVALYGNRGYYDVNAHSYWGQGTQVTVS
chain 2: GPPCPPCPAPEFLGGPSVFLFPPKPKDTLMISRTPEVTCVVVDVSQEDPEVQFNWYVDGVEVHNAKTKPREEQFNSTYRVVSVLTVLHQDWLNGKEYKCKVSNKGLPSSIEKTISKAKGQPREPQVCTLPPSQEEMTKNQVSLSCAVKGFYPSDIAVEWESNGQPENNYKTTPPVLDSDGSFFLVSRLTVDKSRWQEGNVFSCSVMHEALHNHYTQKSLSLSLGKRSEVQLLESGGGLVQPGGSLRLSCAASGFTFGNYDMAWVRQAPGKRPEWVSSIDTGGDITHYADSVKGRFTISRDNAKNTLYLQMNSLRPEDTAVYWCATDEEYALGPNEFDYYGQGTLVTVSS
B6: NIgG4F4A1(G4S)2 (Fc fusion)
chain 1: DVQLQESGGGLVQAGGSLRLSCAVSGLSFSSMGWFRQPPGKEREFVAAISLYSGSTYYADSVKGRFTISSDNAKSTVYLQMNSLKPEDAAVYFCAADRQRTWSTFYASRQATYNYWGQGTQVTVTSGGGGSGGGGSGPPCPPCPAPEFLGGPSVFLFPPKPKDTLMISRTPEVTCVVVDVSQEDPEVQFNWYVDGVEVHNAKTKPREEQFNSTYRVVSVLTVLHQDWLNGKEYKCKVSNKGLPSSIEKTISKAKGQPREPQVYTLPPCQEEMTKNQVSLWCLVKGFYPSDIAVEWESNGQPENNYKTTPPVLDSDGSFFLYSRLTVDKSRWQEGNVFSCSVMHEALHNHYTQKSLSLSLGK
chain 2: EVQLLESGGGLVQPGGSLRLSCAASGFTFGNYDMAWVRQAPGKRPEWVSSIDTGGDITHYADSVKGRFTISRDNAKNTLYLQMNSLRPEDTAVYWCATDEEYALGPNEFDYYGQGTLVTVSSGGGGSGGGGSGPPCPPCPAPEFLGGPSVFLFPPKPKDTLMISRTPEVTCVVVDVSQEDPEVQFNWYVDGVEVHNAKTKPREEQFNSTYRVVSVLTVLHQDWLNGKEYKCKVSNKGLPSSIEKTISKAKGQPREPQVCTLPPSQEEMTKNQVSLSCAVKGFYPSDIAVEWESNGQPENNYKTTPPVLDSDGSFFLVSRLTVDKSRWQEGNVFSCSVMHEALHNHYTQKSLSLSLGK
B7: NIgG4F4A1(G4S)1 (Fc fusion)
chain 1: DVQLQESGGGLVQAGGSLRLSCAVSGLSFSSMGWFRQPPGKEREFVAAISLYSGSTYYADSVKGRFTISSDNAKSTVYLQMNSLKPEDAAVYFCAADRQRTWSTFYASRQATYNYWGQGTQVTVTSGGGGSGPPCPPCPAPEFLGGPSVFLFPPKPKDTLMISRTPEVTCVVVDVSQEDPEVQFNWYVDGVEVHNAKTKPREEQFNSTYRVVSVLTVLHQDWLNGKEYKCKVSNKGLPSSIEKTISKAKGQPREPQVYTLPPCQEEMTKNQVSLWCLVKGFYPSDIAVEWESNGQPENNYKTTPPVLDSDGSFFLYSRLTVDKSRWQEGNVFSCSVMHEALHNHYTQKSLSLSLGK
chain 2: EVQLLESGGGLVQPGGSLRLSCAASGFTFGNYDMAWVRQAPGKRPEWVSSIDTGGDITHYADSVKGRFTISRDNAKNTLYLQMNSLRPEDTAVYWCATDEEYALGPNEFDYYGQGTLVTVSSGGGGSGPPCPPCPAPEFLGGPSVFLFPPKPKDTLMISRTPEVTCVVVDVSQEDPEVQFNWYVDGVEVHNAKTKPREEQFNSTYRVVSVLTVLHQDWLNGKEYKCKVSNKGLPSSIEKTISKAKGQPREPQVCTLPPSQEEMTKNQVSLSCAVKGFYPSDIAVEWESNGQPENNYKTTPPVLDSDGSFFLVSRLTVDKSRWQEGNVFSCSVMHEALHNHYTQKSLSLSLGK
B8: CIgG4F3A1(G4S)2 (Fc fusion)
chain 1: GPPCPPCPAPEFLGGPSVFLFPPKPKDTLMISRTPEVTCVVVDVSQEDPEVQFNWYVDGVEVHNAKTKPREEQFNSTYRVVSVLTVLHQDWLNGKEYKCKVSNKGLPSSIEKTISKAKGQPREPQVYTLPPCQEEMTKNQVSLWCLVKGFYPSDIAVEWESNGQPENNYKTTPPVLDSDGSFFLYSRLTVDKSRWQEGNVFSCSVMHEALHNHYTQKSLSLSLGKGGGGSGGGGSDVQLQESGGGLVQAGGSLKLSCAASRGSLSRWDVAWFRQAPGKERSFVTRISWSGTTSYYADAVKGRFAISRDNAKNTVYLQMNSLKPEDTAVYYCAVALYGNRGYYDVNAHSYWGQGTQVTVS
chain 2: GPPCPPCPAPEFLGGPSVFLFPPKPKDTLMISRTPEVTCVVVDVSQEDPEVQFNWYVDGVEVHNAKTKPREEQFNSTYRVVSVLTVLHQDWLNGKEYKCKVSNKGLPSSIEKTISKAKGQPREPQVCTLPPSQEEMTKNQVSLSCAVKGFYPSDIAVEWESNGQPENNYKTTPPVLDSDGSFFLVSRLTVDKSRWQEGNVFSCSVMHEALHNHYTQKSLSLSLGKGGGGSGGGGSEVQLLESGGGLVQPGGSLRLSCAASGFTFGNYDMAWVRQAPGKRPEWVSSIDTGGDITHYADSVKGRFTISRDNAKNTLYLQMNSLRPEDTAVYWCATDEEYALGPNEFDYYGQGTLVTVSS

Biological target: T1, recombinant human IgE (human, UniProt P01854-1 1-428)
T1 construct: made in-house (ALK); preloaded on immobilised FcεRIα in the displacement ELISA
Assay: IgE-FcεRIα displacement ELISA
Summary of the method: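 sdAbs at pM–μM were incubated 1 h on preformed complexes of 13 ng/ml recombinant human IgE with avi-tag-biotinylated human FcεRIα captured on streptavidin.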

T1 sequence (P01854 other isoform, or with tags, fused parts or gaps): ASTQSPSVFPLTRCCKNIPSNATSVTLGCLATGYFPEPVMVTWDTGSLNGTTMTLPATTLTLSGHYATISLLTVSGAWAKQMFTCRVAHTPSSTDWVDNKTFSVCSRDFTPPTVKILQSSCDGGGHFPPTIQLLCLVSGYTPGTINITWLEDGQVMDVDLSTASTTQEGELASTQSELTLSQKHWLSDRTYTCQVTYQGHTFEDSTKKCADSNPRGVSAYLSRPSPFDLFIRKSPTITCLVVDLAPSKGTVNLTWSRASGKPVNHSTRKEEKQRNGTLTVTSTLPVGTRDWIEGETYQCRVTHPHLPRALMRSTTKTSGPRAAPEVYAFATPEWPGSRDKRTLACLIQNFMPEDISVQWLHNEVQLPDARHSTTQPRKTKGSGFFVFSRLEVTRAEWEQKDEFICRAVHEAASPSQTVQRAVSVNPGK

| Binder | Max effect [%] | EC50 [nM] |
| --- | --- | --- |
| B1 | 45 |  |
| B2 | 90 | 24 |
| B3 | 50 | 1000 |
| B4 | > 95 |  |
| B5 | 30 |  |
| B6 | > 95 |  |
| B7 | > 95 |  |
| B8 | 80 | 41 |
